Assay results reported in US20220153848A1 (DRAGONFLY THERAPEUTICS, published 2022).

B1: A49MI-Duobody-TriNKET-Onartuzumab (bispecific antibody, human IgG1, kappa)
heavy 1: not shown
light 1: DIQMTQSPSSLSASVGDRVTITCKSSQSLLYTSSQKNYLAWYQQKPGKAPKLLIYWASTRESGVPSRFSGSGSGTDFTLTISSLQPEDFATYYCQQYYAYPWTFGQGTKVEIKRTVAAPSVFIFPPSDEQLKSGTASVVCLLNNFYPREAKVQWKVDNALQSGNSQESVTEQDSKDSTYSLSSTLTLSKADYEKHKVYACEVTHQGLSSPVTKSFNRGEC
heavy 2: not shown
light 2: DIQMTQSPSSVSASVGDRVTITCRASQGISSWLAWYQQKPGKAPKLLIYAASSLQSGVPSRFSGSGSGTDFTLTISSLQPEDFATYYCQQGVSFPRTFGGGTKVEIKRTVAAPSVFIFPPSDEQLKSGTASVVCLLNNFYPREAKVQWKVDNALQSGNSQESVTEQDSKDSTYSLSSTLTLSKADYEKHKVYACEVTHQGLSSPVTKSFNRGEC
B2: A49MI-Duobody-TriNKET-Emibetuzumab (bispecific antibody, human IgG1, kappa)
heavy 1: not shown
light 1: DIQMTQSPSSLSASVGDRVTITCSVSSSVSSIYLHWYQQKPGKAPKLLIYSTSNLASGVPSRFSGSGSGTDFTLTISSLQPEDFATYYCQVYSGYPLTFGGGTKVEIKRTVAAPSVFIFPPSDEQLKSGTASVVCLLNNFYPREAKVQWKVDNALQSGNSQESVTEQDSKDSTYSLSSTLTLSKADYEKHKVYACEVTHQGLSSPVTKSFNRGEC
heavy 2: not shown
light 2: B1 light 2
B3: A49MI-Duobody-TriNKET-ABT-700 (bispecific antibody, human IgG1, kappa)
heavy 1: not shown
light 1: not shown
heavy 2: not shown
light 2: B1 light 2

What follows are binders tested against c-MET on the surface of HT29 and HCT-116 human colon cancer cells (human, UniProt P08581 25-1390) (assay: cell-based or functional assay).
Chain of c-MET on the surface of HT29 and HCT-116 human colon cancer cells (P08581 25-1390 limits assumed): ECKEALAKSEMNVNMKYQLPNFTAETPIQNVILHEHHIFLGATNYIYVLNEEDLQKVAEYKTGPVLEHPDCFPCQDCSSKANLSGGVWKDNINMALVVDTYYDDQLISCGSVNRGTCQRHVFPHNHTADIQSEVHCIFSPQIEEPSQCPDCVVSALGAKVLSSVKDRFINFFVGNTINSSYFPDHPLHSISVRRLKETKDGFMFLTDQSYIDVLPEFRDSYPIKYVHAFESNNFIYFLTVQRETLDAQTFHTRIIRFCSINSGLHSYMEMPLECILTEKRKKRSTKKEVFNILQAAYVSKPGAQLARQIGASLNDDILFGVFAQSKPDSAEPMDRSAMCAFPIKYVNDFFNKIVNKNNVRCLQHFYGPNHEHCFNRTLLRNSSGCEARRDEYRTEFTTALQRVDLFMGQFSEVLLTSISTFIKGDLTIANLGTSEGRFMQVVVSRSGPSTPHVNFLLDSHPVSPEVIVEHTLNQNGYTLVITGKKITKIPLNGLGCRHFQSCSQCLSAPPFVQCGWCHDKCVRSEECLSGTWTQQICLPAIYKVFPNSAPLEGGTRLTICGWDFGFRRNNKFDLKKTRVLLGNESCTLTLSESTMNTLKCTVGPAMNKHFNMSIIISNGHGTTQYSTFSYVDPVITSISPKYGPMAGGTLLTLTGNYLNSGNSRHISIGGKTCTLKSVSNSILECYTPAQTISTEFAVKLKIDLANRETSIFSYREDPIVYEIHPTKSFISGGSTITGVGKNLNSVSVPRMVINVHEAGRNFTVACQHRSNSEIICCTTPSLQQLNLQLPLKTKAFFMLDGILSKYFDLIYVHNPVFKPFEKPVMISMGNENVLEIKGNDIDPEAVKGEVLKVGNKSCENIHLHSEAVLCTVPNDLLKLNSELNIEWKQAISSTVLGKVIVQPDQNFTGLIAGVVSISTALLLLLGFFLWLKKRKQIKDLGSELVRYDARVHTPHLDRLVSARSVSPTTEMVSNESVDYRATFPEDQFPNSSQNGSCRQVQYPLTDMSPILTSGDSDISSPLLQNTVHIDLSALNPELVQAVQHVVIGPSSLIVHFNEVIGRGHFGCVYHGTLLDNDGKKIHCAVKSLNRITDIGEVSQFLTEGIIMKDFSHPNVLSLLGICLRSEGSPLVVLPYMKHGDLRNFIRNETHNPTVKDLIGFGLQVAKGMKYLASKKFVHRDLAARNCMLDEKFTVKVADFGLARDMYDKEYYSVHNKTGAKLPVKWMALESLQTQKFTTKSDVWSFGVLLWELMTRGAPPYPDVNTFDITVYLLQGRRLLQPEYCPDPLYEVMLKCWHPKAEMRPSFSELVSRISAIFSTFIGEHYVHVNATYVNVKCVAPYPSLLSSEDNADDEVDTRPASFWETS

| Binder | EC50 of human NK cell lysis of c-MET positive target cells (DELFIA cytotoxicity assay) |
| --- | --- |
| B1 | < 1 nM |
| B2 | < 1 nM |
| B3 | < 1 nM |
